The assay deals with p65 protein used for surface plasmon resonance (UniProt Q04206 1-551). The assay can be described thus: SPR. For orientation: In SPR one partner is held on a chip, and binding of the other changes the refractive index at the surface.

For orientation: Kd means the free concentration of one partner at which half of the binding sites on the other are occupied at equilibrium, for simple one-to-one binding. Lower therefore signals tighter binding.

Sequence of p65 protein used for surface plasmon resonance (Q04206 whole entry): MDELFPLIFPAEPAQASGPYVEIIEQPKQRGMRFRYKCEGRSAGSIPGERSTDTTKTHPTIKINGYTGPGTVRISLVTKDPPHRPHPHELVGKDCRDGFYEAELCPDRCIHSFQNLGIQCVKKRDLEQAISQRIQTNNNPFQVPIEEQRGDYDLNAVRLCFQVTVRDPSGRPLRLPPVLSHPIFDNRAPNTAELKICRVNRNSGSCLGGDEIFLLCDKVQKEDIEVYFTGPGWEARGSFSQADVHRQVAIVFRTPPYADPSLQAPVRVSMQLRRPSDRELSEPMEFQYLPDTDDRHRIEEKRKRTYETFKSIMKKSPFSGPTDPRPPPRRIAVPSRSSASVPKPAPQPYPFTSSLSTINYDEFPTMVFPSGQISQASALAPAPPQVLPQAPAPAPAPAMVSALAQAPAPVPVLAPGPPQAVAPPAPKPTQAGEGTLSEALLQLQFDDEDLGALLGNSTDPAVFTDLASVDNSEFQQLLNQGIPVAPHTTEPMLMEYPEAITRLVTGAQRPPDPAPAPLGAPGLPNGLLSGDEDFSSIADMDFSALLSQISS

B1: ANXA1 protein used for surface plasmon resonance (natural protein, UniProt P04083 1-346, looked up)
chain: MAMVSEFLKQAWFIENEEQEYVQTVKSSKGGPGSAVSPYPTFNPSSDVAALHKAIMVKGVDEATIIDILTKRNNAQRQQIKAAYLQETGKPLDETLKKALTGHLEEVVLALLKTPAQFDADELRAAMKGLGTDEDTLIEILASRTNKEIRDINRVYREELKRDLAKDITSDTSGDFRNALLSLAKGDRSEDFGVNEDLADSDARALYEAGERRKGTDVNVFNTILTTRSYPQLRRVFQKYTKYSKHDMNKVLDLELKGDIEKCLTAIVKCATSKPAFFAEKLHQAMKGVGTRHKALIRIMVSRSEIDMNDIKAFYQKMYGISLCQAILDETKGDYEKILVALCGGN
As to B1, binding was put at a Kd of 13 nM.

Values taken from PMC8893600 (Kidney international, 2021).
